# Source: patent US20240109958A1 (Genentech, published 2024)
# Numbering of substitutions follows the chain as printed. Groups on a side chain read outwards from the residue. No end group written: not given here.
# T1: biotinylated K-ε-GG peptide (AAA{K-ε-GG}AAA) (also: biotinylated, position not given here)
# T1 construct: also called branched diglycine peptide
# T1 peptide: AAAK([Gly-Gly])AAA
# B1: anti-GGX monoclonal antibody 2B12 (rabbit IgG) (antibody, V domains shown)
# VH: QSVEESGGGLVTPGGALTLTCTASGFSLNRHWMNWVRQAPGKGLEWIGAINESGRTYYATWAKGRFFISKTTTTVDLKITSPTTADTATYFCVRDDDVSNFWGPGTLVTVSS
# VL: DPMLTQTPSSVSAAVGGTVSINCQSTKSVYKYNHLSWYQQKPGQPPKQLIFPASTLQSGVPSRFSGSGSGTQFTLTISDVQCDDAATYYCLGLYDCRSGDCNVFGGGTKLEIKG
# notes: also called anti-GGX antibody 2B12
# B2: anti-GGX monoclonal antibody 1C7 (rabbit IgG) (antibody, V domains shown)
# VH: QSVKESGGRLVTPGTPLTLTCKVSGFSLSSYYMNWVRQAPGKGLEWIGIMFPNGKIYYATWAKGRFTISKTSTTVDLKIISPTTEDTATYFCTGDDSGDVNIWGPGTLVTVSS
# VL: DIVLTQTASPVSAAVGGTVTINCQSSQSVYTNNRLAWYQQKPGQPAKEMIYGASTLPSGVSSRFKGSGSGTQFALTISDVQCDDAATYYCLGTYDCLSADCLAFGGGTKLEIKG
# notes: also called anti-GGX antibody 1C7; anti-GGX mAb
# B3: anti-GGX monoclonal antibody 2E9 (rabbit IgG) (antibody, V domains shown)
# VH: QKQLMESGGRLVTPGTPLTLTCKVSGFSLSSYYMNWVRQAPGKGLEWIGIMFPNGKIYYATWAKGRFTISKTSTTVDLKIISPTTEDTATYFCTGDDSGDVNIWGPGTLVTVSS
# VL: B2 VL with T93E, Y94F, L97T, L102F, A103V, K109E, L110V, E111V, I112V
# notes: also called anti-GGX antibody 2E9; anti-GGX 2E9 antibody
# B4: anti-GGX monoclonal antibody 2H2 (rabbit IgG) (antibody, V domains shown)
# VH: B2 VH with K4E, G7R
# VL: B2 VL with I2P, V3M, T31S, A46P, A74T, K109E, L110V, E111V, I112V
# notes: also called anti-GGX antibody 2H2; anti-GGX 2H2 antibody
# Target: T1, biotinylated K-ε-GG peptide …
# Assay: ELISA, biotinylated peptide on neutravidin plates
# Protocol: Biotinylated peptides (GGM and K-ε-GG) were coated at 1 μg/mL in PBS on neutravidin ELISA plates (Thermo Scientific) in triplicate overnight at 4° C. Plates were washed with PBST prior to use. Serial dilutions of GGX mAbs or K-ε-GG mAb (Cell Signaling Technology) at 1 μg/mL were added for 1-2 hours at 25° C. Plates were washed and further developed as described above (see FIG. 1E).
row,binding result,Binder
1,no binding (tested: 1 µg/mL),B1
2,no binding (tested: 1 µg/mL),B2
3,no binding (tested: 1 µg/mL),B3
4,no binding (tested: 1 µg/mL),B4
